Experimental data reported in patent US20230129258A1 (Bicycle, published 2023).
Starred links: 1 amine or outer side, 2 acyl side, 3 side chain; linkers in the order of their positions; H or OH if unused. Positions of bridges follow the written chain, without caps; N, C: chain ends. Non-standard residues stand in square brackets, D forms with d. Chains are numbered I, II in the order given. No end group written: not given here. *: point of attachment. TATA = O=C(CC[*:1])N1CN(C(=O)CC[*:2])CN(C(=O)CC[*:3])C1; Dip = N[C@H](C(=O)O)C(c1ccccc1)c1ccccc1; 1Nal = N[C@@H](Cc1cccc2ccccc12)C(=O)O; Hyp = O=C(O)[C@@H]1C[C@@H](O)CN1; hArg = N=C(N)NCCCC[C@H](N)C(=O)O; tBuAla = CC(C)(C)C[C@H](N)C(=O)O; Cysteamide = C(CS[*:3])N[*:1]; Cba = N[C@@H](CC1CCC1)C(=O)O; dK(PYA) = not defined here; Nle = CCCC[C@H](N)C(=O)O; Pent4ynoyl = C#CCCC(=O)*; Mpa = O=C(O)CCS

B1: BCY12978 (peptide)
peptide 1: A[hArg]EC[Hyp]LVNPLCLHP[dE]W[hArg]C
peptide 2: Ac-C[tBuAla]PE[dK](Pent4ynoyl)PYCFADPY[Nle]CA
modifications: linker I:4-I:11-I:18, II:1-II:8-II:15 via TATA (inferred); not fully specified (bridges); also: chain 1 N-terminus and chain 2 dLys(PYA) joined through N-(acid-PEG3)-N-bis(PEG3-azide) linker
B2: BCY13048 (peptide)
peptide 1: C[Hyp]LVNPLCL[Dip]P[dD]WTC
peptide 2: Ac-C[tBuAla]PE[dK](Pent4ynoyl)PYCFADPY[Nle]CA
modifications: linker I:1-I:8-I:15 via TATA; linker II:1-II:8-II:15 via TATA (inferred); not fully specified (N-terminus, bridges); also: 1:2 complex: two copies of chain 2 (BCY8928) on the branched linker
B3: BCY13049 (peptide)
peptide 1: C[Hyp]LVNPLCLEP[dD]WTC[dA]
peptide 2: Ac-C[tBuAla]PE[dK](Pent4ynoyl)PYCFADPY[Nle]CA
modifications: linker I:1-I:8-I:15, II:1-II:8-II:15 via TATA (inferred); not fully specified (N-terminus); also: linker joins chain 1 to two chain 2 copies via PYA triazoles
B4: BCY13053 (peptide)
peptide 1: C[Hyp][Cba]VNPLCL[Dip]P[dD]WTC[dA]
peptide 2: Ac-C[tBuAla]PE[dK](Pent4ynoyl)PYCFADPY[Nle]CA
modifications: linker I:1-I:8-I:15 via TATA; linker II:1-II:8-II:15 via TATA (inferred); not fully specified (N-terminus, bridges); also: 1:2 complex: two copies of chain 2 (BCY8928) on the branched linker
B5: BCY12484 (peptide)
peptide 1: CPXDCMXDWSTPXWC
peptide 2: CXEEXPYCFADPYXC
modifications: not fully specified; BCY12143: Ac-(SEQ ID NO: 64); TATA; linker at dLys(PYA)4; BCY8116: SEQ ID NO: 1; TATA; linker at N-terminus
B6: BCY13273 (peptide)
peptide 1: C[Hyp]LVNPLCL[1Nal]PDWTC
peptide 2: Ac-C[tBuAla]PE[dK](Pent4ynoyl)PYCFADPY[Nle]CA
modifications: linker I:1-I:8-I:15 via TATA; linker II:1-II:8-II:15 via TATA (inferred); not fully specified (some residues, N-terminus); also: linker joins chain 1 to two chain 2 copies via PYA triazoles
B7: BCY13274 (peptide)
peptide 1: Ac-C[Hyp]LVNPLCL[Dip]P[dD]WTC[dK]
peptide 2: Ac-C[tBuAla]PE[dK](Pent4ynoyl)PYCFADPY[Nle]CA
modifications: linker I:1-I:8-I:15 via TATA; linker II:1-II:8-II:15 via TATA (inferred); not fully specified (bridges); also: linker N-(acid-PEG3)-N-bis(PEG3-azide) on C-terminal dK of chain 1, joins two chain 2 copies via PYA triazoles
B8: BCY13280 (peptide)
peptide 1: [dA]EDC[Hyp]LVNPLCLEP[dD]WTC
peptide 2: Ac-C[tBuAla]PE[dK](Pent4ynoyl)PYCFADPY[Nle]CA
modifications: linker I:4-I:11-I:18, II:1-II:8-II:15 via TATA (inferred); not fully specified (N-terminus, bridges); also: 1:2 complex: two copies of chain 2 (BCY8928) on the branched linker
B9: BCY13281 (peptide)
peptide 1: AADCXLVNPLCLEPDWTC
peptide 2: CXPEXPYCFADPYXCA
modifications: not fully specified; BCY8928: Ac-(SEQ ID NO: 11)-A; TATA; linker at dLys(PYA)4; BCY13127: [dA]-[dA]-D-(SEQ ID NO: 35); TATA; linker at N-terminus
B10: BCY13282 (peptide)
peptide 1: ADC[Hyp]LVNPLCLEP[dD]WTC
peptide 2: Ac-C[tBuAla]PE[dK](Pent4ynoyl)PYCFADPY[Nle]CA
modifications: linker I:3-I:10-I:17, II:1-II:8-II:15 via TATA (inferred); not fully specified (N-terminus, bridges); also: 1:2 complex: two BCY8928 chains on the linker
B11: BCY11385 (peptide)
peptide 1: CPXDCMXDWSTPXWC
peptide 2: CXPEAPYCFADPYXCX
modifications: not fully specified; BCY11014: Ac-(SEQ ID NO: 6)-Dap(PYA); TATA; linker at C-term Dap(PYA); BCY8116: SEQ ID NO: 1; TATA; linker at N-terminus
B12: BCY13341 (peptide)
peptide 1: C[Hyp][Cba]VNPLCL[Dip]P[dD]WTC[dA]
peptide 2: [Mpa][tBuAla]PE[dK(PYA)]PYCFADPY[Nle]C
modifications: linker I:1-I:8-I:15, II:1-II:8-II:15 via TATA; reading uncertain; also: linker at chain B 5 to a chain's N-terminus via N-(acid-PEG3)-N-bis(PEG3-azide)
B13: BCY13343 (peptide)
peptide 1: C[Hyp]LVNPLCL[Dip]PDWTC
peptide 2: [Mpa][tBuAla]PE[dK(PYA)]PYCFADPY[Nle]C
modifications: linker I:1-I:8-I:15, II:1-II:8-II:15 via TATA; not fully specified (some residues); reading uncertain; also: 1:2 complex: two copies of chain 2 (BCY12353) on the branched linker, linker at chain B 5 to a chain's N-terminus via N-(acid-PEG3)-N-bis(PEG3-azide)
B14: BCY12485 (peptide)
peptide 1: CPXDCMXDWSTPXWC
peptide 2: CXPEXPYCFADPYXC
modifications: not fully specified; BCY12149: Ac-(SEQ ID NO: 63); TATA; linker at dLys(PYA)4; BCY8116: SEQ ID NO: 1; TATA; linker at N-terminus
B15: BCY12486 (peptide)
peptide 1: CPXDCMXDWSTPXWC
peptide 2: CXPEXPYCFANPYXC
modifications: not fully specified; BCY12147: Ac-(SEQ ID NO: 65); TATA; linker at dLys(PYA)4; BCY8116: SEQ ID NO: 1; TATA; linker at N-terminus
B16: BCY12586 (peptide)
peptide 1: CPXDCMXDWSTPXWC
peptide 2: CXPEXPYCFADPYXX
modifications: not fully specified; BCY12352: Ac-(SEQ ID NO: 69), [Cysam] third reactive group; TATA; linker at dLys(PYA)4; BCY8116: SEQ ID NO: 1; TATA; linker at N-terminus
B17: BCY12587 (peptide)
peptide 1: CP[1Nal]DCM[hArg]DWSTP[Hyp]WC
peptide 2: [Mpa][tBuAla]PE[dK](Pent4ynoyl)PYCFADPY[Nle]C
modifications: linker I:1-I:5-I:15, II:1-II:8-II:15 via TATA; not fully specified (some residues); also: chain 2 present twice on linker, Nectin-4:CD137 1:2, linker at chain B 5 to a chain's N-terminus via N-(acid-PEG3)-N-bis(PEG3-azide)
B18: BCY12588 (peptide)
peptide 1: CP[1Nal]DCM[hArg]DWSTP[Hyp]WC
peptide 2: [Mpa][tBuAla]PE[dK](Pent4ynoyl)PYCFADPY[Nle][Cysteamide]
modifications: linker I:1-I:5-I:15, II:1-II:8-II:15 via TATA; not fully specified (some residues); also: chain 2 present twice on linker, Nectin-4:CD137 1:2, linker at chain B 5 to a chain's N-terminus via N-(acid-PEG3)-N-bis(PEG3-azide)
B19: BCY12590 (peptide)
peptide 1: CP[1Nal]ECM[hArg]EWSTP[Hyp]WC
peptide 2: Ac-C[tBuAla]PE[dK](Pent4ynoyl)PYCFADPY[Nle]CA
modifications: linker I:1-I:5-I:15, II:1-II:8-II:15 via TATA; not fully specified (some residues, bridges); also: chains joined via N-(acid-PEG3)-N-bis(PEG3-azide) linker, triazole at dLys(PYA)
B20: BCY11021 (peptide)
peptide 1: CPXDCMXDWSTPXWC
peptide 2: ACIEEXQYCFADPYXCA
modifications: not fully specified; BCY7744: Ac-A-(SEQ ID NO: 12)-A; TATA; linker at dLys(PYA)4; BCY11016: [PYA]-[B-Ala]-(SEQ ID NO: 1); TATA; linker at N-term PYA
B21: BCY10918 (peptide)
peptide 1: CPXDCMXDWSTPXWC
peptide 2: CXPEXPYCFADPYXCA
modifications: not fully specified; BCY8928: Ac-(SEQ ID NO: 11)-A; TATA; linker at dLys(PYA)4; BCY11015: [PYA]-(SEQ ID NO: 1); TATA; linker at N-term PYA
B22: BCY10919 (peptide)
peptide 1: CPXDCMXDWSTPXWC
peptide 2: CXPEAPYCFADPYXCX
modifications: not fully specified; BCY11014: Ac-(SEQ ID NO: 6)-Dap(PYA); TATA; linker at C-term Dap(PYA); BCY11015: [PYA]-(SEQ ID NO: 1); TATA; linker at N-term PYA
B23: BCY11022 (peptide)
peptide 1: CPXDCMXDWSTPXWC
peptide 2: CXPEXPYCFADPYXCA
modifications: not fully specified; BCY8928: Ac-(SEQ ID NO: 11)-A; TATA; linker at dLys(PYA)4; BCY11016: [PYA]-[B-Ala]-(SEQ ID NO: 1); TATA; linker at N-term PYA
B24: BCY11027 (peptide)
peptide 1: CPXDCMXDWSTPXWC
peptide 2: CXPEXPYCFADPYXCA
modifications: not fully specified; BCY8928: Ac-(SEQ ID NO: 11)-A; TATA; linker at dLys(PYA)4; BCY11015: [PYA]-(SEQ ID NO: 1); TATA; linker at N-term PYA

Tests used:
Assay in all cases: cell-based or functional assay
[1] = target: T1, CD137 on Jurkat reporter cells (Promega kit CS196005) (UniProt Q07011 24-255, limits assumed)
[2] = target: T1, CD137 on Jurkat reporter cells (Promega …); remark: listed apart in the source
[3] = target: T1, CD137 on Jurkat reporter cells (Promega …); remark: listed apart in the source

T1 sequence (Q07011 24-255 limits assumed): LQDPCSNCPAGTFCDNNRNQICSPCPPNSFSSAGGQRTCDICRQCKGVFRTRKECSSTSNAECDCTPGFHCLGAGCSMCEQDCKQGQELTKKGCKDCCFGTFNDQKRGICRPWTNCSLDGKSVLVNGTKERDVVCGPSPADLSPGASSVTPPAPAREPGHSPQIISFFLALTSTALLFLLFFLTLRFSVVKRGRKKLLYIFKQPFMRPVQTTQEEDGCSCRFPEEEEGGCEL

Binder | EC50 (nM), PC3 co-culture [1] [nM] | Emax (fold induction over background), PC3 [1] [fold over background] | Fold improvement in EC50 over BCY10000 on same plate, NCI-H292 [2] [fold] | Fold improvement in Emax over BCY10000 on same plate, NCI-H292 [2] [fold] | other results
B1 | 0.05 | 78.1 | – | – | –
B2 | 0.09 | 48.4 | – | – | –
B3 | 0.3 | 46 | – | – | –
B4 | 0.1 | 40.3 | – | – | –
B5 | – | – | 5.46 | 1.86 | –
B6 | 0.13 | 51.3 | – | – | –
B7 | 0.19 | 47.4 | – | – | –
B8 | 0.19 | 38.1 | – | – | –
B9 | 0.17 | 35.6 | – | – | –
B10 | 0.22 | 40 | – | – | –
B11 | – | – | 9.35 | 1.28 | –
B12 | 0.19 | 49.1 | – | – | –
B13 | 0.11 | 44 | – | – | –
B14 | – | – | 3.82 | 2.18 | –
B15 | – | – | 0.25 | 1.73 | –
B16 | – | – | 1.9 | 3.79 | –
B17 | – | – | 4.2 | 2.9 | –
B18 | – | – | 0.72 | 3.2 | –
B19 | – | – | 5.5 | 2.73 | –
B20 | – | – | 9.63 | 4.42 | –
B21 | – | – | – | – | EC50 (nM), HT1376 co-culture [3]: 0.16 nM
B22 | – | – | – | – | EC50 (nM), HT1376 co-culture [3]: 0.19 nM; Emax (fold induction over background), HT1376 [3]: 62 fold over background
B23 | – | – | – | – | EC50 (nM), HT1376 co-culture [3]: 0.2 nM; Emax (fold induction over background), HT1376 [3]: 66 fold over background
B24 | – | – | – | – | EC50 (nM), HT1376 co-culture [3]: 0.18 nM
